Molecular target: PLY R208A (Streptococcus pneumoniae) (UniProt P0C2J9)

“PLY R208A (from UniProt P0C2J9 2-470) (natural protein)” was tested. Which cytolytic activity on human red blood cells, percent of native PLY activity (% native PLY activity) did it give?
The cytolytic activity on human red blood cells, percent of native PLY activity (% native PLY activity) was 2.5.

— PMC4585913, “Crystal structure of Streptococcus pneumoniae pneumolysin provides key insights into early steps of pore formation” (Scientific Reports, 2015)
